Measured values as given in US20240067734A1.

Target: di muNKG2D ECD Fc avi (murine)
Assay: ELISA; biotinylated antigen on streptavidin plate

di muNKG2D ECD Fc avi (murine), sequence (chain, as listed by the source limits assumed): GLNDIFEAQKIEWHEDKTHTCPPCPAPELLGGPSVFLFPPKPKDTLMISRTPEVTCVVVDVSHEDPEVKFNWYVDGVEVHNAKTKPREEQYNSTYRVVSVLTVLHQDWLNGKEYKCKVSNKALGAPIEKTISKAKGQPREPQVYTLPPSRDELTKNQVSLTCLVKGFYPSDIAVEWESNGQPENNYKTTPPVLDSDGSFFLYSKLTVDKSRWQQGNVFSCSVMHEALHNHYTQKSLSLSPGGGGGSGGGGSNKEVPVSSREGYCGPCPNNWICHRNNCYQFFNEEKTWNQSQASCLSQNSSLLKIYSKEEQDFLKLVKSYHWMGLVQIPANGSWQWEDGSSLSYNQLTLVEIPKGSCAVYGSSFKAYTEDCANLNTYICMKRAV

OD max: 0.2 OD
B1: anti-NKG2D antibody clone 001 (antibody, V domains shown)
VH: QQLEQSGGGLVTPGGSLKLCCIGSGFDFNTYWMTWVRQAPGKGLEWIGCIHGGSSGSTYYASWVNGRFTLSRDIDQSTGCLQVNSLTAADTAMYYCARPGYRSWSKTFDLWGQGTMVTVSS
VL: DIQMTQSPSSLSASVGDRVTITCRASQDISESLNWYQQKPGKAPKLLIYAASSLQSGVPSRFSGSGSGTDYTLTISSLQPEDFATYYCQQANSFPLTFGGGTKVEIK
